These results are taken from publication PMC10801580 (2024).

The target of experiment [1] is T1, WT RBD-6xHis (receptor-binding domain of the SARS-CoV-2 spike protein) (SARS-CoV-2, UniProt P0DTC2). Briefly: BLI. (BLI is a label-free optical method that tracks binding on a fibre tip over time.)
For experiment [2], the target named is T1, WT RBD-6xHis (receptor-binding domain …). Briefly: ELISA. On the technique in general: In an ELISA, binding on a coated surface is turned into a signal by an enzyme label.

B1: humanized 9-8F2-B11, VH3VL3 combination (antibody, V domains shown)
VH: QVQLVQSGAEVKKPGASVKVSCKASGFNIKETYVHWVRQAPGQGLEWMGRIDPAIGDSEYAQKFQGRVTMTRDTSISTAYMELSRLRSDDTAVYYCARTWGPFFDFWGQGTLVTVSS
VL: DIVMTQTPLSLSVTPGQPASISCKSSQSLLHSHGNTFLHWYLQKPGQSPQVLIYKVSSRFSGVPDRFSGSGSGTDFTLKISRVEAEDVGVYYCSQSTHVPYTFGQGTKLEIK
As a reminder, the Kd is a measure of binding affinity in units of concentration. High values mean weaker binding, low ones tighter binding. For the molecule B1, binding in experiment [1] was characterised by a dissociation constant (Kd) of 2.26 nM.

B2: murine 9-8F2-B11 (antibody, V domains shown)
VH: EVQLQQSGAELVKPGASVKLSCTASGFNIKETYVHWVKQRPEQGLEWIGRIDHAIGDSEYDPKFQGKATVTADTSSNTAYLQLSRLTSEDTAVYYCARTWGPFFDFWGQGTTVTVSS
VL: DVVMTQTPLSLPVSLGDQASISCRSSQSLVHSHGNTFLHWYLQKPGQSPKVLIYKVSSRFSGVPDRFSGSGAGTDFTLKISRVEAEDLGVYFCSQSTHVPYTFGGGTKLEIK
One may read the EC50 as the concentration needed to bring the measured effect to its halfway point. Read a high EC50 as lower potency in that assay. B2 came in with a Kd in experiment [1] of 0.913 nM. For the same molecule, the EC50 in experiment [2] amounted to 0.0137 ng/mL.
